Target: T1, human islet-specific glucose-6-phosphatase catalytic subunit-related protein (IGRP) peptide on HLA-DRA*01:01 … (human)
T1 peptide: QHLQKDYRAYYTF
Experiment: multimer staining
Procedure: Three million transduced and sorted GP+envAm12 were plated per well of a 6 well plate in a final volume of 3 ml. Next day 100,000 JURMA-hCD4 were co-cultured with the pre-plated transduced GP+envAm12 in a final volume of 3 ml supplemented with 8 ug/ml of polybrene. This co-culture was maintained during two weeks changing the media every 2 or 3 days. After co-culture, JURMA-hCD4 cells were harvested analyzed by flow cytometry and sorted for high transgene expression. Cells were then stained with PE labeled heterodimers.

B1: IGRP13-25 TCR (TCR, V domains shown)
Valpha: DQQVKQNSPSLSVQEGRISILNCDYTNSMFDYFLWYKKYPAEGPTFLISISSIKDKNEDGRFTVFLNKSAKHLSLHIVPSQPGDSAVYFCAATNSGGSNYKLTFGKGTLLTVNP
Vbeta: DGGITQSPKYLFRKEGQNVTLSCEQNLNHDAMYWYRQDPGQGLRLIYYSQIVNDFQKGDIAEGYSVSREKKESFPLTVTSAQKNPTAFYLCASGGRVYQPQHFGDGTRLSIL
  binding result: recognises
